± gives the standard deviation of the averaged measurements.
System: ATP
Experiment: switch fluorescence ratio, 500 uM ATP over buffer (Cy3 cluster intensity, sum of 5 cycles each) (fold (ratio)); higher = stronger signal-on switching upon ATP binding; sequences stand for … in TCGTCGGCAGCGTCAGATGTGTATAAGAGACAGTTTTTTTTTTTTTTTTTTTTTTTTT…TC
Conditions: aptamer strand: ATP DNA aptamer (quencher-CACCTGGGGGAGTATTGCGGAGGAAGG + anchor), 100 nM annealed; ATP concentration: 500 uM
Summary of the method: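 Five buffer/ATP imaging cycles were run on Cy3-labelled switching-strand clusters on a modified Illumina MiSeq flow-cell, with NaOH stripping and re-annealing between cycles. In each cycle, clusters annealed to 100 nM quencher-labelled ATP aptamer were imaged in selection buffer, then after 15 min with 500 uM ATP at 22 °C. Per cluster, the fluorescence ratio is summed target-cycle over summed buffer-cycle Cy3 intensity, averaged per switch-domain sequence. Only clusters within 100-1000 RFU were kept.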
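Note: ATP exposure 15 min at 22 °C before imaging.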

Sequence | switch fluorescence ratio
AATTCACGTT | 1.17 ± 0.19
AATTCCGATG | 1.29 ± 0.076
AATTCCGGGT | 1.02 ± 0.031
AATTCCTGGT | 1.04 ± 0.023
AATTCGACGT | 0.9963 ± 0.0091
AATTCGCAGT | 1.17 ± 0.23
AATTCGTCG | 0.9557 ± 0.0045
AATTCGTGCG | 0.9872 ± 0.0086
AATTCGTTAC | 1.63 ± 0.76
AATTCGTTGG | 0.993 ± 0.026
AATTCTTGGG | 0.981 ± 0.018
AATTGAAACA | 0.9731 ± 0.0068
AATTGAAGGC | 0.972 ± 0.022
AATTGACCGA | 1.05 ± 0.013
AATTGATAAA | 0.984 ± 0.042
AATTGATGTT | 0.972 ± 0.025
AATTGATTGG | 0.983 ± 0.032
AATTGCGGCC | 0.979 ± 0.045
AATTGCTACC | 1.07 ± 0.013
AATTGGAAGG | 0.993 ± 0.012
AATTGGACTA | 0.976 ± 0.063
AATTGGAGGA | 0.996 ± 0.033
AATTGGATCG | 1.016 ± 0.0018
AATTGGGCAG | 0.9971 ± 0.0038
AATTGGGCTA | 0.9994 ± 0.0056

Sequence | switch fluorescence ratio
AATTGGGCTT | 1.02 ± 0.043
AATTGGGTAA | 1.025 ± 0.0083
AATTGGGTTT | 0.99 ± 0.023
AATTGGTTAG | 0.984 ± 0.054
AATTGTATAG | 0.9913 ± 0.0062
AATTGTGCCT | 1.08 ± 0.055
AATTGTGGAG | 0.966 ± 0.023
AATTGTGTTG | 0.98 ± 0.031
AATTGTTGGT | 1.01 ± 0.036
AATTTAGAGT | 1 ± 0.012
AATTTCACGG | 1.03 ± 0.066
AATTTCCGAG | 1.17 ± 0.037
AATTTCCTTT | 0.988 ± 0.036
AATTTCGGGA | 1.01 ± 0.044
AATTTCGGGT | 0.9877 ± 0.0096
AATTTGAAAG | 1.017 ± 0.01
AATTTGAGGA | 0.972 ± 0.02
AATTTGAGTG | 0.977 ± 0.032
AATTTGCGAC | 1.05 ± 0.011
AATTTGGACT | 1.03 ± 0.027
AATTTGGCCC | 1.01 ± 0.031
AATTTGGGTT | 1.04 ± 0.053
AATTTGGTAT | 1.04 ± 0.011
AATTTGTATT | 0.997 ± 0.011
AATTTGTTAG | 0.985 ± 0.018

Sequence | switch fluorescence ratio
AATTTGTTCT | 0.999 ± 0.025
AATTTGTTTC | 0.972 ± 0.021
AATTTTAATG | 0.997 ± 0.022
AATTTTATCT | 0.99 ± 0.014
AATTTTGTTA | 0.976 ± 0.043
AATTTTTAGA | 0.987 ± 0.034
AATTTTTGTA | 0.984 ± 0.018
AATTTTTTCA | 0.99 ± 0.018
AATTTTTTCG | 0.992 ± 0.025
ACAAACTGGT | 1 ± 0.019
ACAAAGAGTC | 0.9932 ± 0.0083
ACAAAGGTGT | 1.29 ± 0.015
ACAACGCTTG | 1.01 ± 0.032
ACAAGATGGG | 1.09 ± 0.082
ACAAGGGGGA | 1.02 ± 0.013
ACAAGGTGAT | 1.15 ± 0.024
ACAAGTATCA | 0.9853 ± 0.0074
ACAATCCGGG | 1.01 ± 0.032
ACAATCGGAA | 1.025 ± 0.0014
ACAATTGCTA | 0.994 ± 0.03
ACACAAGGTC | 1.03 ± 0.041
ACACAATCAT | 1.02 ± 0.011
ACACATGTAT | 1 ± 0.045
ACACCATTAA | 1.02 ± 0.03
ACACCCGGCC | 1.28 ± 0.068

Sequence | switch fluorescence ratio
ACACCCTTAT | 1.127 ± 0.011
ACACCGGGGG | 1.13 ± 0.17
ACACGGGGGG | 1.04 ± 0.022
ACACGGTGAT | 1.056 ± 0.0056
ACACGGTGGG | 0.975 ± 0.054
ACACGTGCTA | 1.01 ± 0.024
ACACGTTACA | 1.62 ± 0.082
ACACTCGTCT | 1.009 ± 0.0051
ACACTGCCGG | 1.04 ± 0.026
ACACTGTATC | 1.21 ± 0.038
ACACTTGAAT | 0.996 ± 0.027
ACACTTGCGC | 1.02 ± 0.038
ACACTTGTTG | 0.963 ± 0.028
ACAGAAGATG | 1.003 ± 0.0087
ACAGAAGCTT | 1.03 ± 0.015
ACAGAAGTCT | 1.03 ± 0.096
ACAGCGGGGT | 1 ± 0.021
ACAGGACGGA | 1.03 ± 0.013
ACAGGAGAAA | 1.01 ± 0.019
ACAGGAGGAG | 0.9859 ± 3.2e-05
ACAGGATTGG | 1.01 ± 0.017
ACAGGCGTCA | 1.02 ± 0.024
ACAGGGAAAG | 1.04 ± 0.034
ACAGGGCCGT | 1.03 ± 0.033
ACAGGGTAGC | 1 ± 0.015

Sequence | switch fluorescence ratio
ACAGGGTTTC | 0.985 ± 0.015
ACAGGTAAA | 1.02 ± 0.028
ACAGGTAGCT | 1.06 ± 0.056
ACAGGTAGGT | 1 ± 0.055
ACAGGTTGGA | 1.03 ± 0.023
ACAGTAGTTA | 1.046 ± 0.0065
ACAGTGTGGG | 1.05 ± 0.018
ACAGTTAGGT | 0.992 ± 0.034
ACAGTTCTAC | 1.03 ± 0.031
ACAGTTGGGC | 0.9946 ± 0.004
ACATAATGCC | 0.933 ± 0.047
ACATACAATT | 1.23 ± 0.091
ACATACTGCA | 1.29 ± 0.14
ACATAGATTA | 1.03 ± 0.016
ACATATAGGG | 1.04 ± 0.021
ACATATTACT | 1.13 ± 0.0066
ACATCAAAAT | 1.001 ± 0.0015
ACATCACTAA | 1.306 ± 0.0079
ACATCAGCGG | 0.958 ± 0.031
ACATCCTTCG | 1.7 ± 0.25
ACATCGGGTG | 1.42 ± 0.59
ACATGAAGGT | 1.006 ± 0.0035
ACATGCAAGC | 1.64 ± 0.12
ACATGCATTA | 1.02 ± 0.026
ACATGCGCGG | 0.9999 ± 0.0079

Sequence | switch fluorescence ratio
ACATGCGGGG | 1.019 ± 0.01
ACATGCTCCC | 1.73 ± 0.13
ACATGGTTTT | 1.01 ± 0.017
ACATGTTAGT | 1.006 ± 0.0028
ACATGTTATA | 1 ± 0.049
ACATTAAGTA | 1.02 ± 0.037
ACATTAGGGT | 1.01 ± 0.012
ACATTATAAT | 1.041 ± 0.0056
ACATTCCAAA | 1.03 ± 0.013
ACATTCGCGC | 1.148 ± 0.0066
ACATTCGGGC | 1.02 ± 0.041
ACATTGAAAA | 0.996 ± 0.036
ACATTGGCGA | 0.988 ± 0.044
ACATTTAATT | 0.983 ± 0.013
ACATTTAGGC | 1.048 ± 0.0088
ACATTTGCAG | 1.02 ± 0.033
ACATTTTGCG | 0.99926 ± 0.00068
ACATTTTGTT | 0.972 ± 0.051
ACCAACTCAA | 1.18 ± 0.037
ACCAAGAGCG | 1.05 ± 0.023
ACCAAGGGCT | 0.996 ± 0.034
ACCAAGGGTG | 1.135 ± 0.0042
ACCAATAAAC | 1.09 ± 0.033
ACCAATCCTG | 1 ± 0.013
ACCAATCGGG | 0.9917 ± 0.002

Sequence | switch fluorescence ratio
ACCACAGAGC | 1.04 ± 0.051
ACCACGGTGT | 2.12 ± 0.075
ACCACTAAAA | 1.04 ± 0.019
ACCAGGGGGT | 1.05 ± 0.09
ACCAGGTATG | 1.12 ± 0.016
ACCATAGGCT | 1.01 ± 0.055
ACCATCGGGA | 1.01 ± 0.016
ACCATGCCGG | 1 ± 0.077
ACCATGGGAT | 1.02 ± 0.015
ACCATGGGCC | 1.01 ± 0.018
ACCATGTAAG | 0.988 ± 0.035
ACCATTAAAA | 1.004 ± 0.0029
ACCCAGCATC | 1.49 ± 0.025
ACCCAGTGAA | 1.24 ± 0.016
ACCCATAGCG | 1.017 ± 0.0062
ACCCCTGGGC | 1.16 ± 0.041
ACCCGAAGGG | 0.948 ± 0.075
ACCCGAGCAT | 1.79 ± 0.12
ACCCGAGGGA | 1.05 ± 0.05
ACCCGATCTT | 1 ± 0.053
ACCCGCACTT | 1.82 ± 0.24
ACCCGGCACA | 1.21 ± 0.051
ACCCGGGATT | 1.13 ± 0.098
ACCCGTAAGA | 1.22 ± 0.093
ACCCGTACTT | 1.15 ± 0.033

Sequence | switch fluorescence ratio
ACCCTTCTGC | 1.15 ± 0.017
ACCGACGCGG | 2.55 ± 0.34
ACCGCACCAA | 1.34 ± 0.051
ACCGCATTGT | 1.96 ± 0.23
ACCGCTCAGG | 1.022 ± 0.0093
ACCGCTGGTC | 1.13 ± 0.056
ACCGCTGGTT | 0.97 ± 0.014
ACCGCTTTTT | 1.11 ± 0.024
ACCGGATGG | 1.03 ± 0.027
ACCGGGCGGC | 1.05 ± 0.033
ACCGGGGGTA | 0.991 ± 0.024
ACCGGGTGCA | 1.36 ± 0.48
ACCGGGTGGG | 1.12 ± 0.15
ACCGGGTGTA | 1.3 ± 0.086
ACCGTAGCGG | 1.12 ± 0.023
ACCGTCAGTG | 1 ± 0.015
ACCGTTGGTT | 1.02 ± 0.056
ACCGTTTTTA | 1.08 ± 0.097
ACCTAGCTTC | 1.12 ± 0.05
ACCTCTTATA | 1.05 ± 0.014
ACCTGATGTC | 1.06 ± 0.015
ACCTGGAAAA | 0.999 ± 0.048
ACCTGGATTG | 1.03 ± 0.017
ACCTGGCAAA | 1.09 ± 0.043
ACCTGGGGAT | 1.028 ± 0.0099

Reference: the supplement of paper PMC10126150
